Results as given in patent US20220403041A1 (Sanofi, published 2022).

Key:
soluble CD73 dimer [1] = target: T1, soluble CD73 dimer (human, UniProt P21589 27-549, limits assumed); experiment: SPR, antibody captured on chip, CD73 in flow; biphasic fit, share by T0 intercept of the component with kd 2.70E-05 1/s
T1 construct: CD73 in the flow (SPR) or in solution (BLI binning); also called soluble human CD73
T1 sequence: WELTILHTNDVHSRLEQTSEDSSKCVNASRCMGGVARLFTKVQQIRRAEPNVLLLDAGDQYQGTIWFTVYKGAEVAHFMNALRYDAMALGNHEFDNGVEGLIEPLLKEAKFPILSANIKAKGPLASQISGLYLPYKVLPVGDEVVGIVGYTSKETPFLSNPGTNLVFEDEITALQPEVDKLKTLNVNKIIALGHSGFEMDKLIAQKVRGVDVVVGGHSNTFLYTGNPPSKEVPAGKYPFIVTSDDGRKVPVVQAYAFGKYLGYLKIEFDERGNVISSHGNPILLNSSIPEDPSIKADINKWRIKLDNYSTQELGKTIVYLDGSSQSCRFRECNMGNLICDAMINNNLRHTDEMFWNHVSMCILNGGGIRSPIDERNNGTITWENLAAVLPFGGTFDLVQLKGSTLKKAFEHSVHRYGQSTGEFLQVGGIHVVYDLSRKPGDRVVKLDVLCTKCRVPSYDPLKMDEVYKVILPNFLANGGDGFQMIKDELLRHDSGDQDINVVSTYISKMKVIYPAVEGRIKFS

soluble CD73 dimer [2] = target: T1, soluble CD73 dimer; experiment: SPR, antibody captured on Protein A chip, CD73 in flow; Langmuir ka with major component kd
soluble CD73 dimer [3] = target: T1, soluble CD73 dimer; experiment: SPR, antibody captured on chip, CD73 in flow; biphasic fit, share after 300 s binding phase of the component with ka 2.81E+05 1/Ms
soluble CD73 dimer [4] = target: T1, soluble CD73 dimer; experiment: SPR, antibody on the solid support, soluble CD73 dimer in solution
soluble CD73 dimer [5] = target: T1, soluble CD73 dimer; experiment: SPR, antibody captured on Protein A chip, CD73 in flow; biphasic fit, component of abundance 35%
soluble CD73 dimer [6] = target: T1, soluble CD73 dimer; experiment: SPR; KD from Langmuir ka and kd of the principal dissociation component
soluble CD73 dimer [7] = target: T1, soluble CD73 dimer; experiment: SPR dissociation kinetics
soluble CD73 dimer [8] = target: T1, soluble CD73 dimer; experiment: SPR, antibody captured on chip, CD73 in flow; biphasic fit, share after 300 s binding phase of the component with ka 1.38E+06 1/Ms
soluble CD73 dimer [9] = target: T1, soluble CD73 dimer; experiment: SPR, antibody captured on Protein A chip, CD73 in flow; Langmuir 1:1 fit
soluble CD73 dimer [10] = target: T1, soluble CD73 dimer; experiment: SPR, antibody captured on Protein A chip, CD73 in flow; biphasic fit, component of abundance 85%
[11] = target: T2, human CD73 on COR-L23 lung carcinoma cells (human) (UniProt P21589); experiment: cell-based or functional assay
T2 sequence: T1 sequence

soluble CD73 dimer [12] = target: T1, soluble CD73 dimer; experiment: SPR, antibody captured on Protein A chip, CD73 in flow; biphasic fit, component of abundance 15%
[13] = target: T2, human CD73 on COR-L23 lung carcinoma cells (human)
soluble CD73 dimer [14] = target: T1, soluble CD73 dimer; experiment: SPR, antibody captured on chip, CD73 in flow; biphasic fit, share by T0 intercept of the component with kd 2.70E-03 1/s
soluble CD73 dimer [15] = target: T1, soluble CD73 dimer; experiment: SPR, antibody captured on Protein A chip, CD73 in flow; biphasic fit, component of abundance 65%
soluble CD73 dimer [16] = target: T1, soluble CD73 dimer; experiment: SPR, antibody captured on Protein A chip, CD73 in flow; biphasic fit, component of abundance 9%
soluble CD73 dimer [17] = target: T1, soluble CD73 dimer; experiment: SPR, antibody captured on chip, CD73 in flow; biphasic fit, share by T0 intercept of the component with kd 6.00E-03 1/s
soluble CD73 dimer [18] = target: T1, soluble CD73 dimer; experiment: SPR, antibody captured on chip, CD73 in flow; biphasic fit, share by T0 intercept of the component with kd 7.80E-05 1/s
soluble CD73 dimer [19] = target: T1, soluble CD73 dimer; experiment: SPR, antibody captured on chip, CD73 in flow; biphasic fit, share after 300 s binding phase of the component with ka 1.16E+05 1/Ms
soluble CD73 dimer [20] = target: T1, soluble CD73 dimer; experiment: SPR, antibody captured on Protein A chip, CD73 in flow; biphasic fit, component of abundance 45%
soluble CD73 dimer [21] = target: T1, soluble CD73 dimer; experiment: SPR, antibody captured on chip, CD73 in flow; biphasic fit, share after 300 s binding phase of the component with ka 1.19E+06 1/Ms
soluble CD73 dimer [22] = target: T1, soluble CD73 dimer; experiment: SPR, antibody captured on Protein A chip, CD73 in flow; biphasic fit, component of abundance 55%
soluble CD73 dimer [23] = target: T1, soluble CD73 dimer; experiment: SPR, antibody captured on Protein A chip, CD73 in flow; biphasic fit, component of abundance 91%

B1: TB19/H19 (bispecific antibody, part only; not given: H19 arm; constant regions, V domains shown, part only)
VH: QEQLQESGPGLVKPSETLSLTCTVSGGSIRNNYYNWIRQPAGKGLEWIGRIYISGTTNSNPSLKSRVTMSIDTSKNQFSLKLSSVTAADTAIYYCAREHYVSGTSLDNWGQGTLVTVSS
VL: EIVMTQSPTTLSLSPGERATLSCRASQSVNTNYFSWYQQKPGLTPRLLIYGTSTRATGIPARFSGSGSGTDFTLTISSLQPEDFGIYYCQQDYNLPYTFGQGTYLEIK
abundance of dissociation component (biphasic fit) (soluble CD73 dimer [1]): 85% | Kd (soluble CD73 dimer [2]): 0.0602 nM | abundance of association component (biphasic fit) (soluble CD73 dimer [3]): 65% | fold lower KD than either parental antibody (soluble CD73 dimer [4]): 15 fold | kon (soluble CD73 dimer [5]): 1.38e+06 M⁻¹ s⁻¹ | fold increase of apparent affinity (KD) over either monovalent parental antibody (soluble CD73 dimer [6]): 69 fold | fold more stable (kd of the principal component) than with either monovalent parental (soluble CD73 dimer [7]): 26 fold | abundance of association component (biphasic fit) (soluble CD73 dimer [8]): 35% | koff (soluble CD73 dimer [9]): 0.000112 s⁻¹ | kon (soluble CD73 dimer [9]): 449000 M⁻¹ s⁻¹ | koff (soluble CD73 dimer [10]): 2.7e-05 s⁻¹ | EC50 (nM) of inhibition of CD73 activity (adenosine by LC/MS) [11]: 0.382 nM | Max Inhib. (projected maximal inhibition at saturating antibody) [11]: 98% | inhibition of CD73 enzymatic activity on COR-L23 cells at 1 µg/mL [11]: > 95% | koff (soluble CD73 dimer [12]): 0.0027 s⁻¹ | % inhibition of CD73 activity at 1 µg/ml antibody (COR-L23 cells, 4 h, LC/MS); cell TB19 x H19 [13]: 97% | abundance of dissociation component (biphasic fit) (soluble CD73 dimer [14]): 15% | kon (soluble CD73 dimer [15]): 281000 M⁻¹ s⁻¹

B2: TB19/TC29 (bispecific antibody, part only; not given: TC29 arm; constant regions, V domains shown, part only)
VH: B1 VH
VL: B1 VL
koff (soluble CD73 dimer [16]): 0.006 s⁻¹ | abundance of dissociation component (biphasic fit) (soluble CD73 dimer [17]): 9% | Kd (soluble CD73 dimer [2]): 0.114 nM | abundance of dissociation component (biphasic fit) (soluble CD73 dimer [18]): 91% | abundance of association component (biphasic fit) (soluble CD73 dimer [19]): 45% | kon (soluble CD73 dimer [20]): 116000 M⁻¹ s⁻¹ | abundance of association component (biphasic fit) (soluble CD73 dimer [21]): 55% | koff (soluble CD73 dimer [9]): 8.96e-05 s⁻¹ | kon (soluble CD73 dimer [9]): 685000 M⁻¹ s⁻¹ | EC50 (nM) of inhibition of CD73 activity (adenosine by LC/MS) [11]: 0.264 nM | EC50, fold lower than that of the antibody mixture [11]: 50 fold | Max Inhib. (projected maximal inhibition at saturating antibody) [11]: 95% | inhibition of CD73 enzymatic activity on COR-L23 cells at 1 µg/mL [11]: > 95% | % inhibition of CD73 activity at 1 µg/ml antibody (COR-L23 cells, 4 h, LC/MS); cell TB19 x TC29 [13]: 95% | kon (soluble CD73 dimer [22]): 1.19e+06 M⁻¹ s⁻¹ | koff (soluble CD73 dimer [23]): 7.8e-05 s⁻¹

B3: TB19/E23 (bispecific antibody, part only; not given: E23 arm, part only)
TB19 arm heavy chain: B1 VH
TB19 arm light chain: EIVMTQSPTTLSLSPGERATLSCRASQSVNTNYFSWYQQKPGLTPRLLIYGTSTRATGIPARFSGSGSGTDFTLTISSLQPEDFGIYYCQQDYNLPYTFGQGTYLEIKRTVAAPSVFIFPPSDEQLKSGTASVVCLLNNFYPREAKVQWKVDNALQSGNSQESVTEQDSKDSTYSLSSTLTLSKADYEKHKVYACEVTHQGLSSPVTKSFNRGEC
% inhibition of CD73 activity at 1 µg/ml antibody (COR-L23 cells, 4 h, LC/MS); cell TB19 x E23 [13]: 50%

B4: TB19/F1.2 (bispecific antibody, part only; not given: F1.2 arm, part only)
TB19 arm heavy chain: B1 VH
TB19 arm light chain: B3 TB19 arm light chain
% inhibition of CD73 activity at 1 µg/ml antibody (COR-L23 cells, 4 h, LC/MS); cell TB19 x F1.2 [13]: 47%

B5: TB19/AS30 (bispecific antibody, part only; not given: AS30 arm, constant regions, V domains shown, not shown: another chain or arm of the molecule; a dimerising Fc or GST; small tags and cut ends)
VH: B1 VH
VL: B1 VL
Kd (soluble CD73 dimer [2]): 4.18 nM | koff (soluble CD73 dimer [9]): 0.00069 s⁻¹ | kon (soluble CD73 dimer [9]): 165000 M⁻¹ s⁻¹ | % inhibition of CD73 activity at 1 µg/ml antibody (COR-L23 cells, 4 h, LC/MS); cell TB19 x AS30 (monovalent) [13]: -1%
